The record followed here is patent publication US20130040893A1, “TREATMENT OF PROLIFERATIVE DISORDERS” (TETRALOGIC PHARMACEUTICALS CORPORATION, priority 2005, published 2013).

In one assay the test system is SK-OV-3^R cells. The assay is described as follows: TRAIL sensitivity MTT assay in IAP Antagonist-resistant SK-OV-3 cells. It is filed as cell-based. On the procedure:
(§1) Another unexpected observation we made was with respect to TRAIL sensitivity. IAP Antagonist-resistant SK-OV-3 cells (SK-OV-3^R) were generated by exposing the parental SK-OV-3 cells (SK-OV-3^S) to an IAP antagonist compound at a concentration that kills 95% of cells. Three days later, viable cells were transferred to a fresh flask and grown to confluency. Two weeks later, the cells were tested for IAP Antagonist sensitivity in an MTT assay as described above and as expected, found these cells to be resistant to IAP Antagonist cytotoxicity.

The next assay has as its system SK-OV-3^S cells. The assay is described as follows: TRAIL sensitivity MTT assay in parental SK-OV-3 cells. It is filed as cell-based. On the procedure:
as §1
Background: Tetrazolium assays rely on reduction of a dye to a coloured formazan, in cell work by metabolically active cells.

B1: TRAIL: tumor necrosis factor-related apoptosis-inducing ligand, member of the TNF superfamily (protein, UniProt P50591 1-281, looked up)
Tumor necrosis factor ligand …: MAMMEVQGGPSLGQTCVLIVIFTVLLQSLCVAVTYVYFTNELKQMQDKYSKSGIACFLKEDDSYWDPNDEESMNSPCWQVKWQLRQLVRKMILRTSEETISTVQEKQQNISPLVRERGPQRVAAHITGTRGRSNTLSSPNSKNEKALGRKINSWESSRSGHSFLSNLHLRNGELVIHEKGFYYIYSQTYFRFQEEIKENTKNDKQMVQYIYKYTSYPDPILLMKSARNSCWSKDAEYGLYSIYQGGIFELKENDRIFVSVTNEHLIDMDHEASFFGAFLVG
As to B1, the TRAIL sensitivity result is listed as “sensitive to TRAIL” in the assay on SK-OV-3^R cells and “resistant to TRAIL” in the assay with SK-OV-3^S cells.
